# Assay results from article PMC3519786, “Novel Interactions between FOXM1 and CDC25A Regulate the Cell Cycle” (PLoS ONE, 2012).
# T1: GAL4-FOXM1 C-terminal fragment (amino acids 330-763) (human, UniProt Q08050-1 330-763)
# T1 construct: FOXM1, human, C-terminal fragment, amino acids 330-763; from pCMV-XL5-FOXM1B (Origene); also called C-terminal FOXM1; C-terminus of FOXM1; source: mammalian two-hybrid fusion, U2OS, transfected
# T1 sequence (looked up): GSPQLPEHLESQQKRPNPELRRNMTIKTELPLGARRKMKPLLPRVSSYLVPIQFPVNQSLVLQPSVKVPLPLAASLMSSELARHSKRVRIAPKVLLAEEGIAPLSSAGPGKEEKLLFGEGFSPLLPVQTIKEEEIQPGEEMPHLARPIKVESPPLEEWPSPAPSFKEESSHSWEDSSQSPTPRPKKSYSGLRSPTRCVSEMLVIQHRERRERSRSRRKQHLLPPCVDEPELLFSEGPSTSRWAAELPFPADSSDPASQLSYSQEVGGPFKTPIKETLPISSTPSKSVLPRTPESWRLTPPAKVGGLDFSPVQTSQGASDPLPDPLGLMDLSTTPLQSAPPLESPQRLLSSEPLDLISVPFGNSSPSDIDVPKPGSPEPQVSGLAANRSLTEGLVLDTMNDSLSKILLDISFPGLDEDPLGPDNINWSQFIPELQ
# Biological target: T1, GAL4-FOXM1 C-terminal fragment (amino …)
# Test: two-hybrid; mammalian two-hybrid (Checkmate, Promega) in U2OS; bait pBIND (GAL4 DNA-binding domain)-FOXM1, prey pACT (VP16 activation domain)-CDC25A, reporter pG5-luc; firefly normalised to Renilla luciferase; 2 days
# Conditions: partners not purified
binder,measurement,value
"VP16-CDC25A (natural protein, UniProt P30304 1-524, looked up, CDC25A (cell division cycle 25A) dual phosphatase; plasmid bought from Origene; also called pACT-CDC25A; wild-type CDC25A; source: mammalian two-hybrid fusion, U2OS, transfected) MELGPEPPHRRRLLFACSPPPASQPVVKALFGASAAGGLSPVTNLTVTMDQLQGLGSDYEQPLEVKNNSNLQRMGSSESTDSGFCLDSPGPLDSKENLENPMRRIHSLPQKLLGCSPALKRSHSDSLDHDIFQLIDPDENKENEAFEFKKPVRPVSRGCLHSHGLQEGKDLFTQRQNSAPARMLSSNERDSSEPGNFIPLFTPQSPVTATLSDEDDGFVDLLDGENLKNEEETPSCMASLWTAPLVMRTTNLDNRCKLFDSPSLCSSSTRSVLKRPERSQEESPPGSTKRRKSMSGASPKESTNPEKAHETLHQSLSLASSPKGTIENILDNDPRDLIGDFSKGYLFHTVAGKHQDLKYISPEIMASVLNGKFANLIKEFVIIDCRYPYEYEGGHIKGAVNLHMEEEVEDFLLKKPIVPTDGKRVIVVFHCEFSSERGPRMCRYVRERDRLGNEYPKLHYPELYVLKGGYKEFFMKCQSYCEPPSYRPMHHEDFKEDLKKFRTKSRTWAGEKSKREMYSRLKKL",fold above background (normalised luciferase activity),> 60000 fold
